Assays:
[1] = target: PIF receptor (mouse; C2C12 membranes and mouse tissue plasma membranes) (mouse (C2C12 myotubes)); assay: cell-based or functional assay
[2] = target: PIF receptor (pig sarcolemma membranes) (pig); assay: Scatchard analysis of [35S]PIF binding to pig sarcolemma membranes, first site
[3] = target: PIF receptor (pig sarcolemma membranes) (pig); assay: Scatchard analysis of [35S]PIF binding to pig sarcolemma membranes, second site
[4] = target: PIF receptor (mouse; C2C12 membranes and mouse tissue plasma membranes) (mouse (C2C12 myotubes)); assay: Scatchard analysis of [35S]PIF binding to mouse heart plasma membranes, first site
[5] = target: PIF receptor (mouse; C2C12 membranes and mouse tissue plasma membranes) (mouse (C2C12 myotubes)); assay: Scatchard analysis of [35S]PIF binding to mouse liver plasma membranes, first site
[6] = target: PIF receptor (mouse; C2C12 membranes and mouse tissue plasma membranes) (mouse (C2C12 myotubes)); assay: Scatchard analysis of [35S]PIF binding to mouse heart plasma membranes, second site
[7] = target: PIF receptor (mouse; C2C12 membranes and mouse tissue plasma membranes) (mouse (C2C12 myotubes)); assay: Scatchard analysis of [35S]PIF binding to mouse liver plasma membranes, second site
[8] = target: PIF receptor (human muscle cell line Hs94MU membranes) (human); assay: Scatchard analysis of [35S]PIF binding to Hs94MU human muscle cell membranes, first site
[9] = target: PIF receptor (human muscle cell line Hs94MU membranes) (human); assay: Scatchard analysis of [35S]PIF binding to Hs94MU human muscle cell membranes, second site
[10] = target: PIF receptor (mouse; C2C12 membranes and mouse tissue plasma membranes) (mouse (C2C12 myotubes)); assay: Scatchard analysis of [35S]PIF binding to mouse soleus muscle plasma membranes, first site
[11] = target: PIF receptor (mouse; C2C12 membranes and mouse tissue plasma membranes) (mouse (C2C12 myotubes)); assay: Scatchard analysis of [35S]PIF binding to mouse soleus muscle plasma membranes, second site
[12] = target: PIF receptor (mouse; C2C12 membranes and mouse tissue plasma membranes) (mouse (C2C12 myotubes)); assay: Scatchard analysis of [35S]PIF binding to mouse gastrocnemius muscle sarcolemma membranes, first site
[13] = target: PIF receptor (mouse; C2C12 membranes and mouse tissue plasma membranes) (mouse (C2C12 myotubes)); assay: Scatchard analysis of [35S]PIF binding to C2C12 membranes, second site (column headed Kaff2 x 10^-9 M)
[14] = target: PIF receptor (mouse; C2C12 membranes and mouse tissue plasma membranes) (mouse (C2C12 myotubes)); assay: Scatchard analysis of [35S]PIF binding to mouse gastrocnemius muscle sarcolemma membranes, second site
[15] = target: PIF receptor (mouse; C2C12 membranes and mouse tissue plasma membranes) (mouse (C2C12 myotubes)); assay: comparison of the affinity of PIF for muscle cell binding sites with its affinity for the MAC16 monoclonal antibody
[16] = target: PIF receptor (mouse; C2C12 membranes and mouse tissue plasma membranes) (mouse (C2C12 myotubes)); assay: Scatchard analysis of [35S]PIF binding to C2C12 membranes, first site (column headed Kaff x 10^-10 M; text calls it Kd)
[17] = target: Proteolysis Inducing Factor (PIF) (mouse (MAC16 cells)); assay: cell-based or functional assay

increased rate of protein degradation in C2C12 myoblasts over 24 and 48 h, effective concentrations [1] [nM] | rate of protein degradation (release of L-[2,6-3H]phenylalanine) in C2C12 myoblasts, concentration of maximal effect at 6 h [1] [nM] | Kd [2] [nM] | Kd [3] [nM] | Kd [4] [nM] | Kd [5] [nM] | Kd [6] [nM] | Kd [7] [nM] | Kd [8] [nM] | Kd [9] [nM] | Kd [10] [nM] | Kd [11] [nM] | Kd [12] [nM] | Kd [13] [nM] | Kd [14] [nM] | fold greater affinity than binding to a monoclonal antibody [15] [fold] | Kd [16] [nM] | PIF-induced increase in chymotrypsin-like enzyme activity [17] [µM] | PIF-induced protein degradation in murine myotubes [17] [µM] | Molecule
0.14 to 1.4 | 0.98 to 1.4 | 0.47 | 8.2 | 0.3 | 0.69 | 2.3 | 0.2 | 0.11 | 1.7 | 0.01 | 0.12 | 0.52 | 1.2 | 0.1 | 10 to 100 | 0.14 |  |  | Proteolysis Inducing Factor (PIF) (ligand)
 |  |  |  |  |  |  |  |  |  |  |  |  |  |  |  |  | 10 | 10 | DINGGGATLPQPLYQTAAVLTAGFA [N-terminal synthetic peptide of the PIF receptor (peptide of SEQ ID No. 1)]

Source: patent publication US20120301404A1
